In patent publication US20240082360A1, “METHODS TO TREAT HEPATITIS DELTA VIRAL INFECTIONS” (Eiger Biopharmaceuticals, Inc., priority 2019, published 2024):

B1: Lambda: pegylated form of interferon lambda, a type III interferon signalling through interferon lambda receptors (protein, UniProt Q8IU54 20-200, looked up)
Interferon lambda-1: GPVPTSKPTTTGKGCHIGRFKSLSPQELASFKKARDALEESLKLKNWSCSSPVFPGNWDLRLLQVRERPVALEAELALTLKVLEAAAGPALEDVLDQPLHTLHHILSQLQACIQPQPTAGPRPRGRLHHWLHRLQEAPKKESAGCLEASVTFNLFRLLTRDLKYVADGNLCLRTSTHPEST
modifications: PEG (peginterferon lambda-1a)
notes: pegylated form of interferon lambda, a type III interferon signalling through interferon lambda receptors

Experiments:
[1] = system: HDV; conditions: cited from earlier work
[2] = system: HDV; experiment: Phase 2 LIMT study: Lambda for 48 weeks in HDV patients, with two liver-biopsy case reports; type: in vivo, human; design: key to fibrosis score (ISHAK) in liver biopsy following Lambda treatment / fibrosis score (ISHAK) in post-treatment biopsy: F5: incomplete cirrhosis; F1: mild portal fibrosis
Excerpt: See also International Application No. PCT/US2019/048038 for description of this therapy. Impact of Lambda therapy on liver histology was not assessed in the LIMT study. In this example, two case reports of regression of liver fibrosis following treatment in HDV patients from the LIMT study are provided.
Two patients from the LIMT study, who had liver biopsies prior to study randomization, treated with subcutaneous injections of Lambda 180 mcg once weekly for 48 weeks, followed by a 24 week follow-up period, were evaluated with liver biopsy 18 months after last Lambda injection. Liver biopsies, staged according to the ISHAK scoring system, were compared with results of historical biopsies of the patients. HDV RNA viral load and ALT levels were assessed at baseline (BL), end of treatment (EOT) and end of study (EOS). Fibroscan® was performed at BL and EOS.
FibroScan is a specialized ultrasound machine that measures fibrosis (scarring) and steatosis (fatty change) in the liver. The Fibroscan device (Echosens) works by measuring shear wave velocity. In this technique, a 50-MHz wave is passed into the liver from a small transducer on the end of an ultrasound probe. The probe also has a transducer on the end that can measure the velocity of the shear wave (in meters per second) as this wave passes through the liver. The shear wave velocity can then be converted into liver stiffness, which is expressed in kilopascals. Essentially, the technology measures the velocity of the sound wave passing through the liver and then converts that measurement into a liver stiffness measurement; the entire process is often referred to as liver ultrasonographic elastography. See additional discussion in Afdhal, N.H., Gastroenterol Hepatol (N Y). 8(9): 605-607 (2012).

[3] = system: HDV; conditions: Lambda for 48 weeks; patients with HDV and compensated liver disease; cited from earlier work
[4] = system: HDV; conditions: HBV/HDV co-infected mice; four weeks; cited from earlier work
[5] = system: HBV; conditions: cited from earlier work

| Molecule | patients with undetectable HDV RNA ([1]; 24 weeks post-treatment follow-up) [%] | HDV patients with undetectable HDV RNA ([1]; end of 48 weeks treatment, 180 mcg monotherapy, Robogene 2.0 assay) [%] | HDV RNA level at EOS ([2]; Patient 1, 24 week follow-up after 48 weeks Lambda, BL 3.7 log10) [log10] | Fibroscan score at EOS ([2]; Patient 1, BL 20 kPa) [kPa] | ALT at EOS ([2]; Patient 1, BL 169 U/L) [U/L] | ALT at EOT ([2]; Patient 1, BL 169 U/L) [U/L] | HDV RNA level at EOT ([2]; Patient 1, Lambda 180 mcg once weekly 48 weeks, BL 3.7 log10) | fibrosis score (ISHAK) in liver biopsy following Lambda treatment ([2]; Patient 1, biopsy 18 months after last Lambda injection, historical biopsy F5) | HDV RNA at EOS ([2]; Patient 2, 24 week follow-up after 48 weeks Lambda, BL 4.9 log10) [log10] | Fibroscan score at EOS ([2]; Patient 2, BL 7.7 kPa) [kPa] | ALT at EOS ([2]; Patient 2, BL 159 U/L) [U/L] | ALT at EOT ([2]; Patient 2, BL 159 U/L) [U/L] | HDV RNA at EOT ([2]; Patient 2, Lambda 180 mcg once weekly 48 weeks, BL 4.9 log10) | fibrosis score (ISHAK) in post-treatment biopsy ([2]; Patient 2, biopsy 18 months after last Lambda injection, historical biopsy F4 (marked bridging fibrosis)) | durable virologic response (HDV RNA below limit of quantification at 24 weeks post-treatment) [3] [%] | reduction in HDV-RNA levels [4] [log] | difference between pegylated interferon alfa and pegylated interferon lambda treatment ([5]; end of the treatment period) | declines in viremia as compared to pegylated interferon alfa ([5]; midpoint of treatment (24 weeks)) | virologic rebound ([5]; post-treatment, versus pegylated interferon alfa) |
| --- | --- | --- | --- | --- | --- | --- | --- | --- | --- | --- | --- | --- | --- | --- | --- | --- | --- | --- | --- |
| interferon alfa | 0 | 13 |  |  |  |  |  |  |  |  |  |  |  |  |  |  |  |  |  |
| B1 |  |  | 2.6 | 9.9 | 54 | 55 | undetectable | F1 | 3.6 | 11.1 | 162 | 44 | undetectable | F1 | 36 | 1.5 | no difference | more pronounced declines in viremia | greater virologic rebound |
